Changes are numbered by the printed parent chain. Numbers in names are those of the source.
Experiments:
Conditions in all cases: both partners purified
[1] = target: T1, SARS-CoV-2 spike receptor binding domain, His-tagged (T332-K529 with Pro-527 omitted) (SARS-CoV-2, wild-type RBD (P0DTC2 …)); assay: ITC; […]; iTC200, 25 °C, PBS; […]
T1 construct: also called RBD

[2] = target: T2, His-tagged SARS-CoV-2 RBD T332-K529 with Pro-527 omitted (SARS-CoV-2, wild-type RBD (P0DTC2 …)); assay: ITC
T2 construct: also called isolated RBD

[3] = target: biotinylated RBD (wild type) (SARS-CoV-2, wild-type RBD (P0DTC2 …)); assay: SPR; […]; Biacore T200, PBS pH 7.4 with 0.005% P20, 25 °C
[4] = target: T1, SARS-CoV-2 spike receptor binding …; assay: ITC; […]; iTC200, 25 °C, PBS; […]; remark: listed apart in the source
[5] = target: T3, SARS-CoV-2 spike glycoprotein ectodomain (amino acids 1 to 1,208, GSAS, PP, T4 fibritin trimerization domain) (SARS-CoV-2, P0DTC2 sequence with GSAS …, RRAR > GSAS at residues 682 to 685 | KV > PP at residues 986 to 987); assay: ITC; […]; iTC200, 25 °C, PBS; […]
T3 construct: also called trimeric spike protein

[6] = target: T2, His-tagged SARS-CoV-2 RBD T332-K529 …; assay: crystal structure
biotinylated RBD = biotinylated RBD (SARS-CoV-2, wild-type RBD (P0DTC2 …)); assay: SPR; Biacore T200, PBS pH 7.4 with 0.005% P20, 25 °C; […]; 1:1 binding model
[7] = target: T4, SARS-CoV-2 spike glycoprotein ectodomain (amino acids 1 to 1,208, RRAR > GSAS, KV > PP, T4 fibritin … (SARS-CoV-2, P0DTC2 sequence with GSAS …, RRAR > GSAS at residues 682 to 685 | KV > PP at residues 986 to 987)); assay: ITC
T4 construct: also called Spike protein; trimeric spike protein

B1: H11-A10 (VHH)
VHH: QVQLVESGGGLMQAGGSLRLSCAVSGRTFSTAAMGWFRQAPGKEREFVAAIRWSGGSAYYADSVKGRFTISRDKAKNTVYLQMNSLKYEDTAVYYCAGFSATRSLLSDYATWPYDYWGQGTQVTVSS
Question: With B1 as the binder, how does the “stoichiometry N” value [1] read?
Answer: Its value is 1.

B2: nanobody H11-H4 Y104S (VHH)
VHH: B1 VHH with G98Q, F99T, S100H, A101Y, T102V, R103S
Question: For B2, which Kd [2] is on record?
Answer: The Kd was 409 ± 91 nM.

Question: And the dH [2]?
Answer: Its dH is -11 kcal/mol.

B3: nanobody H11-B5 (VHH)
VHH: B1 VHH with G98S, F99Y, S100Q
Question: How did the Kd [2] turn out when B3 was run?
Answer: Its Kd is 53 ± 5.3 nM.

Question: What about the dH [2] of the same binder?
Answer: Its dH is -16.3 kcal/mol.

B4: H11-H4 R52A (VHH)
VHH: B1 VHH with R52A, G98Q, F99T, S100H, A101Y, T102V, R103S, S104Y
Question: Does B4 bind [3]?
Answer: Result: no binding (tested: 1 µM)

B5: H11-H4 Y104S (VHH)
VHH: B1 VHH with G98Q, F99T, S100H, A101Y, T102V, R103S
Question: How did the “stoichiometry N” value [1] turn out when B5 was run?
Answer: Its value is 1.

B6: H11-H4 R52E (VHH)
VHH: B1 VHH with R52E, G98Q, F99T, S100H, A101Y, T102V, R103S, S104Y
Question: Does B6 bind [3]?
Answer: Result: no binding (tested: 1 µM)

B7: H11-B5 (VHH)
VHH: B1 VHH with G98S, F99Y, S100Q
Question: With B7 as the binder, how does the “stoichiometry N” value [1] read?
Answer: The value was 1.

B8: H11-H4 Q98R H100E (D4 hybrid) (VHH)
VHH: B1 VHH with G98R, F99T, S100E, A101Y, T102V, R103S, S104Y
Question: With B8 as the binder, how does the “stoichiometry N” value [4] read?
Answer: The value was 1.

Question: What about the “stoichiometry N” value [5] of the same binder?
Answer: The value was 1.

B9: nanobody H11 (VHH)
VHH: B1 VHH with G98Q, F99T, S100R, A101V
notes: also called parent H11; parent nanobody
Question: Does B9 bind [6]?
Answer: Result: binds

B10: H11-H4 R52K (VHH)
VHH: B1 VHH with R52K, G98Q, F99T, S100H, A101Y, T102V, R103S, S104Y
Question: Does B10 bind [3]?
Answer: Result: no binding (tested: 1 µM)

B11: nanobody H11-H4 Q98R H100E (D4 hybrid) (VHH)
VHH: B1 VHH with G98R, F99T, S100E, A101Y, T102V, R103S, S104Y
notes: also called H4-D4 hybrid; hybrid nanobody
Question: With B11 as the binder, how does the t1/2 (biotinylated RBD) read?
Answer: The t1/2 was 29 s.

Question: What about the Kd [7] of the same binder?
Answer: The Kd was 21 ± 3 nM.

Question: And the dH [7]?
Answer: Its dH is -14.8 kcal/mol.

Question: What about the Kd [2] of the same binder?
Answer: Its Kd is 18 ± 1 nM.

Question: And the dH [2]?
Answer: Its dH is -16.5 kcal/mol.

B12: H11-H6 (VHH)
VHH: B1 VHH with F99S, S100K, A101I
Question: Which “stoichiometry N” value [4] does the source give for B12 here?
Answer: The value was 1.

B13: nanobody H11 V101Y R103S (VHH)
VHH: B1 VHH with G98Q, F99T, S100R, A101Y, R103S
notes: also called double mutant A101Y, R103S
Question: B13 was tested. Which Kd [2] did it give?
Answer: Its Kd is 5220 nM.

Question: And the dH [2]?
Answer: The dH was -11 kcal/mol.

B14: H11 V101Y R103S (VHH)
VHH: B1 VHH with G98Q, F99T, S100R, A101Y, R103S
Question: For B14, which “stoichiometry N” value [1] is on record?
Answer: Its value is 1.

B15: nanobody H11-A10 (VHH)
VHH: B1 VHH
Question: B15 was tested. Which Kd [2] did it give?
Answer: Its Kd is 60 ± 4.6 nM.

Question: What about the dH [2] of the same binder?
Answer: Its dH is -19.8 kcal/mol.

B16: nanobody H11-H6 (VHH)
VHH: B1 VHH with F99S, S100K, A101I
Question: Which Kd [2] does the source give for B16 here?
Answer: Its Kd is 57 ± 4.5 nM.

Question: What about the dH [2] of the same binder?
Answer: Its dH is -19.1 kcal/mol.

B17: nanobody F2 (VHH)
VHH: QVQLVESGGGLVQAGGSLRLACIASGRTFHSYVMAWFRQAPGKEREFVAAISWSSTPTYYGESVKGRFTISRDNAKNTVYLQMNRLKPEDTAVYFCAADRGESYYYTRPTEYEFWGQGTQVTVSS
Question: Does B17 bind [6]?
Answer: Result: binds
